Target: integrins on T cells
Assay: flow cytometry on cells
Conditions: read off a plot

Row | Substance | response (parent: est. 21) | response (parent: est. 36)
1 | S-RBD protein with C-terminal human Fc-tag (receptor-binding domain of SARS-CoV-2 S protein) D405E | 5 MFI | 6.5 MFI
2 | S-RBD protein with C-terminal human Fc-tag (receptor-binding domain of SARS-CoV-2 S protein) D442E | 8 MFI | 9 MFI
3 | S-RBD protein with C-terminal human Fc-tag (receptor-binding domain of SARS-CoV-2 S protein) D586E | 2 MFI | 2.5 MFI

Reference: paper PMC9969015
